Measurements published in PMC4465122 (EBioMedicine, 2015).

Biological target: the molecule itself
Test: cross-linking

Row | Protein | stoichiometry N
1 | recombinant human prolidase (rhPEPD) (enzyme) MAAATGPSFWLGNETLKVPLALFALNRQRLCERLRKNPAVQAGSIVVLQGGEETQRYCTDTGVLFRQESFFHWAFGVTEPGCYGVIDVDTGKSTLFVPRLPASHATWMGKIHSKEHFKEKYAVDDVQYVDEIASVLTSQKPSVLLTLRGVNTDSGSVCREASFDGISKFEVNNTILHPEIVECRVFKTDMELEVLRYTNKISSEAHREVMKAVKVGMKEYELESLFEHYCYSRGGMRHSSYTCICGSGENSAVLHYGHAGAPNDRTIQNGDMCLFDMGGEYYCFASDITCSFPANGKFTADQKAVYEAVLRSSRAVMGAMKPGVWWPDMHRLADRIHLEELAHMGILSGSVDAMVQAHLGAVFMPHGLGHFLGIDVHDVGGYPEGVERIDEPGLRSLRTARHLQPGMVLTVEPGIYFIDHLLDEALADPARASFLNREVLQRFRGFGGVRIEEDVVVTDSGIELLTCVPRTVEEIEACMAGCDKAFTPFSGPK | 2
2 | rhPEPD^G278D, enzymatically inactive mutant of recombinant human prolidase (enzyme) MAAATGPSFWLGNETLKVPLALFALNRQRLCERLRKNPAVQAGSIVVLQGGEETQRYCTDTGVLFRQESFFHWAFGVTEPGCYGVIDVDTGKSTLFVPRLPASHATWMGKIHSKEHFKEKYAVDDVQYVDEIASVLTSQKPSVLLTLRGVNTDSGSVCREASFDGISKFEVNNTILHPEIVECRVFKTDMELEVLRYTNKISSEAHREVMKAVKVGMKEYELESLFEHYCYSRGGMRHSSYTCICGSGENSAVLHYGHAGAPNDRTIQNGDMCLFDMDGEYYCFASDITCSFPANGKFTADQKAVYEAVLRSSRAVMGAMKPGVWWPDMHRLADRIHLEELAHMGILSGSVDAMVQAHLGAVFMPHGLGHFLGIDVHDVGGYPEGVERIDEPGLRSLRTARHLQPGMVLTVEPGIYFIDHLLDEALADPARASFLNREVLQRFRGFGGVRIEEDVVVTDSGIELLTCVPRTVEEIEACMAGCDKAFTPFSGPK | 2
